Positions count from the first letter of the chain named.

The chains are these.
B1: anti-E-selectin antibody 0039 chimera (antibody, human IgG1, kappa, V domains shown)
VH: QVQLKETGPGLVQPTQTLSITCTVSGFSLTGYYMQWVRQTPGKGLEWMGFIRSSGSTEYNSEFKSRLSISRDTSKNQVFLKMNSLKTEDTGVYYCARCPYKYSSFVYVGVMDAWGQGAPVTVSS
VL: EIVMTQSPTSMSTSIGERVTLNCKASQTVGINVDWYQQTPGQPPKLLIYGASNRHTGVPDRFTGSGFGRDFTLTISNVEAEDLAVYCCLQYGSIPHTFGPGTKLELKR
notes: rat VH/VL on effector-null human IgG1 and human kappa
B2: anti-E-selectin antibody 0180 chimera (antibody, human IgG1, kappa, V domains shown)
VH: EVQLQQSGAELGKPGTSVKLSCKVSGYKIRSSYMHWVNQRPGKGLEWIGRIDPANGNTIYGDKFKSKATLTSDTSSNTAYIQLSQLKSDDTAIYFCAIDIGTTFDYWGQGVMVTVSS
VL: DIQMTQSPSFLSASVGDRVTINCKASQHINRYLNWYQQKLGEAPKLLIYDANNLQTGIPSRFSGSGSGTDFTLTISSLQPEDVATYFCLQHNSWPNTFGAGTKLELKR
notes: as for B1
B3: anti-E-selectin antibody 0164 chimera (antibody, human IgG1, kappa, V domains shown)
VH: EVQLQQSGAEFGKPGTSVKLSCKVSGYNIRSSYMHWVNQRPGKGLEWIGRIDPANGNTIYAEKFKIKAILTADSSSNTAYMQLSQLKSDDTAIYFCAMDLYSTSEYWGQGVMVTVSS
VL: B2 VL with A25T, H28N, D50N, N53S, G64A, S76N, H91D, N96L, A100S, L106I
notes: as for B1
B4: anti-E-selectin antibody 0159 chimera (antibody, human IgG1, kappa, V domains shown)
VH: EVQLQQSGAELGKPGTSVKLSCKVSGYNIRSTYMHWVSQRPGKGLEWIGRIDPANGNTIYAEKFKRKATLTADTSSNTAYMQLSQLKSDDRAIYFCAMEVRVSFEYWGQGVMVTVSS
VL: DIQMTQSPSFLSASVGDRVTINCKASQNINKYLDWYQQKLGEGPKLLIYYTNNLHTGIPSRFSGSGSGTDFTLTISSLQPEDVATYFCLQHDSGYTFGAGTKLELKR
notes: as for B1
B5: anti-E-selectin antibody 0170 chimera (antibody, human IgG1, kappa, V domains shown)
VH: EVQLQQSGAELGKPGTSVKLSCKVSGYSIRSTYMHWVNQRPGKGLEWVGRIDPANGNTIYAERFKNKATLTADTSSNTAYMQLSQLKSDDTAIYFCAVEILGIFDYWGQGVMVTVSS
VL: B4 VL with N30D, G43A, I48M, Y50N, N53S, D92N
notes: as for B1
B6: anti-E-selectin antibody 0158 chimera (antibody, human IgG1, kappa, V domains shown)
VH: QVQLKESGPGLVQPSETLSLTCTVSGFSISTYNVHWLRQPPGKGLEWMGMMWSGGSPDYNSALKSRLSISRDTSKNQVFLKMNSLQSEDTTTYYCARWGGGFDYWGQGVMVTVSS
VL: DIVLTQSPTTLSVTPGETVSLSCRASHSIGTNLHWYQQKTNESPRLLIKFTSQSISGIPSRFSASGSGTDFTLNINNVEFDDVSSYFCQQTQSWPLTFGSGTKLEIKR
notes: as for B1

The first assay addresses T1, human E-selectin extracellular domain with 10 His purification tail (human, UniProt P16581 22-556).
T1 construct: also called soluable human E-selectin extracellular domain; rhE-Selectin
T1 sequence: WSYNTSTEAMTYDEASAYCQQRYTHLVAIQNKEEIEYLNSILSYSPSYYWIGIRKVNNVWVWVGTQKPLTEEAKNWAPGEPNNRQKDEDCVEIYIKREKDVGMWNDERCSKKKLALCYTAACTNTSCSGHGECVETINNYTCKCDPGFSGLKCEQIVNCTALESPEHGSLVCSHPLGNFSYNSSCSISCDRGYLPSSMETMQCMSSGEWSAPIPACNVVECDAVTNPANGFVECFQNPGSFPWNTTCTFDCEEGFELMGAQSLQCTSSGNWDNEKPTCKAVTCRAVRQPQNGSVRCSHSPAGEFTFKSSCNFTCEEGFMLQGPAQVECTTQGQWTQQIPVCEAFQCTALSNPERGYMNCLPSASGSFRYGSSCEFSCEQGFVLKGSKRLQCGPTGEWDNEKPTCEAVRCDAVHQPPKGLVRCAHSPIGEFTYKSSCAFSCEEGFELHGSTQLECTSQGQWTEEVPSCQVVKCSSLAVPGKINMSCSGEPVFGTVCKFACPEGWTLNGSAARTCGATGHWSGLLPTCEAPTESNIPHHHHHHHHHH
As to the kind of experiment: AlphaLISA competition vs sialyl Lewis A-PAA-biotin. How it is done:
(§1) The neutralization ability of anti-E-selectin antibodies was measured in an AlphaLISA homogenous competition assay. […] This was incubated at room temperature for 15 minutes, followed by addition of 1.4 μL of human, mouse or cynomolgus monkey E-selectin added to a final concentration of 7 nM. This was again incubated at room temperature for 15 minutes. To this, 1.4 μL AlphaLISA beads was added (Ni-donor/SA-acceptor) for a final assay concentration of 10 μg/mL. This was incubated in the dark at room temperate for at least 10 hours. The plates were then read using the AlphaLISA protocol (Envision).
Background: In Alpha technology, singlet oxygen from a donor bead excites a nearby acceptor bead.
For orientation: EC50 means the concentration needed to bring the measured effect to its halfway point. A low value points to higher potency in that assay. B1 returned an EC50 of less than 1 nM.
Turning to B2, the EC50 is less than 1 nM.
For B3, the EC50 is less than 1 nM.
As to B4, the EC50 was less than 1 nM.
As to B5, the EC50 was less than 1 nM.
The same measure, in the same setting: the figure for B6 is less than 1 nM.

A further assay deals with T2, mouse E-selectin extracellular domain with 10 His purification tail (mouse, UniProt Q00690 22-557).
T2 construct: also called soluable mouse E-selectin extracellular domain; muE-Selctin
T2 sequence: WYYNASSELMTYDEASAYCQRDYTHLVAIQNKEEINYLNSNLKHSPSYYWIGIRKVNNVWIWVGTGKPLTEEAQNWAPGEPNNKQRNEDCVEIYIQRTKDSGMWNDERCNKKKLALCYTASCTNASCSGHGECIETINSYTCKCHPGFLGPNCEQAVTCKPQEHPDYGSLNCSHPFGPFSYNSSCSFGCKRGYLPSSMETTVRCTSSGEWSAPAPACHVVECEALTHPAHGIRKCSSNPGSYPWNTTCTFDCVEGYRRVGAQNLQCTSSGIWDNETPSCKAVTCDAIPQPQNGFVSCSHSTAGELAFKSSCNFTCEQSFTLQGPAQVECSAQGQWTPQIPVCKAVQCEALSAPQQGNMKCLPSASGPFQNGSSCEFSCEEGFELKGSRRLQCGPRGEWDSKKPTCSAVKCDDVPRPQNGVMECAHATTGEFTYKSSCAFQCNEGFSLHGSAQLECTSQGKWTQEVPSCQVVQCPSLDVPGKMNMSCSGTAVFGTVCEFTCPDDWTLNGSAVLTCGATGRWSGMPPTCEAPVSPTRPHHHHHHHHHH
Nature of the assay: AlphaLISA competition vs sialyl Lewis A-PAA-biotin. As to the method:
as §1
B1 showed an EC50 greater than 133 nM.
Same read-out and setting: the result for B2 reads greater than 133 nM; that for B3, greater than 133 nM.
For B4, the EC50 is greater than 133 nM.
For the molecule B5, the concentration for a half-maximal effect (EC50) was greater than 133 nM.
As to B6, the EC50 is greater than 133 nM.

Another assay deals with T1, human E-selectin extracellular domain …. As to the kind of experiment: SPR, antibody captured, E-selectin analyte. As to the method: To characterize binding of antibodies to human, cynomolgus monkey, and mouse E-selectin, an antibody was diluted to 0.5 μg/mL in HBS-EP+ and captured by the anti-human IgG immobilized on flow cells 2, 3 and 4 for 30 seconds to 1 minute at a flow rate of 10 μL/minute to achieve a capture level of 70 to 300 RU. Flow cell 1 was used as a reference surface. […] HBS-EP+ buffer cycles collected for each captured antibody were used for double-referencing (Myszka D G. J. Mol. Recognition 1999; 12(5):279-84). At the end of each cycle, the entire anti-IgG surface was regenerated by a 30 second pulse of 3 M MgCl₂ and a 30 second pulse of ionic buffer (1.83 M MgCl₂, 0.92 M Urea, 1.83 M Guanidine HCl, pH 7.4) (Andersson K. Analy. Chem. 1999; 71(13): 2475-81). Kinetic assays were conducted at 25° C. at a collection rate of 10 Hertz (Hz) on a BIAcore™ T200 instrument (GE Healthcare). Rate constants and affinities were determined by fitting the data to a 1:1 binding model in BIAcore™ T200 Evaluation software version 3.0 (GE Healthcare).
Background: Surface plasmon resonance follows binding to a sensor surface in real time, without labels.
The term Kd denotes a measure of binding affinity in units of concentration. A low value points to higher affinity. For orientation: koff means the rate constant with which the complex falls apart. A low value points to a long-lived complex. What is called kon is the rate constant with which the complex forms. The term t½ denotes the time in which the quantity being followed falls by half. For B1, the dissociation constant Kd amounted to 68 nM, the koff came out at 0.00421 s⁻¹, the kon was found to be 64200 M⁻¹ s⁻¹ and the t½ turned out to be 174 s.
The like results for B2 were, in that order, 2940 nM, 0.666 s⁻¹, 262000 M⁻¹ s⁻¹ and 1.05 s.
The corresponding values for B3 are 54.4 nM, 0.0113 s⁻¹, 207000 M⁻¹ s⁻¹ and 61.6 s.
The like results for B4 were, in that order, 324 nM, 0.0371 s⁻¹, 115000 M⁻¹ s⁻¹ and 18.7 s.
The molecule B5 registered a Kd of 628 nM, a koff of 0.0549 s⁻¹, a kon of 87400 M⁻¹ s⁻¹ and a t½ of 12.6 s.
The corresponding values for B6 are 21.6 nM, 0.00175 s⁻¹, 81000 M⁻¹ s⁻¹ and 397 s.
